# Test results reported in paper PMC7266990 (2020).
# Molecular target: A. fumigatus wt CBC consisting of the HapB^230–299, HapC^40–137, and HapE^47–164 subunits (Aspergillus fumigatus)
# Assay: SPR
binder,measurement,value
"A. fumigatus HapX^24–158 bZIP peptide (covering the CBC-binding domain, basic region, and coiled-coil domain) (domain or fragment) SPSPGPGTPGSITSKEWVIPPRPKPGRKPATDTPPTKRKAQNRAAQRAFRERRAARVNELEEQIKKIEDEHEIHIAAFKEQITNLSREVEQCRSEMTWWRDRCHALEKEVSVERSAKEAIVKEFRSSLSDREAVR",Kd,1.01 nM
